The stoichiometry N is the number of molecules, sites or subunits per partner or assembly.

The data set concerns the molecule itself. The data set is described as follows: cross-linking + co-IP.

B1: endogenous sorcin (MIN6 β-cells) (natural protein, mouse (endogenous in MIN6), UniProt Q6P069 1-198, looked up)
chain: MAYPGHPGAGGGYYPGGYGGAPGGPAFPGQTQDPLYGYFAAVAGQDGQIDADELQRCLTQSGIAGGYKPFNLETCRLMVSMLDRDMSGTMGFNEFKELWAVLNGWRQHFISFDSDRSGTVDPQELQKALTTMGFRLSPQTVNSVAKRYSTSGKITFDDYIACCVKLRALTDSFRRRDSGQQGVVNFSYDDFIQCVMTV
In the case of B1, the “stoichiometry N” value amounted to 2.

The record behind these values is paper PMC3282809 (Diabetes, 2012).
